Test results reported in publication PMC7501309, “Structure and mechanism of a dehydratase/decarboxylase enzyme couple involved in polyketide β-methyl branch incorporation” (Scientific Reports, 2020).

B1: PksH, bacillaene synthase dehydratase (wild type) (enzyme, Bacillus subtilis 168, UniProt P40805 1-259, looked up)
chain: MDLVTYQTIKVRFQASVCYITFHRPEANNTINDTLIEECLQVLNQCETSTVTVVVLEGLPEVFCFGADFQEIYQEMKRGRKQASSQEPLYDLWMKLQTGPYVTISHVRGKVNAGGLGFVSATDIAIADQTASFSLSELLFGLYPACVLPFLIRRIGRQKAHYMTLMTKPISVQEASEWGLIDAFDAESDVLLRKHLLRLRRLNKKGIAHYKQFMSSLDHQVSRAKATALTANQDMFSDPQNQMGIIRYVETGQFPWEDQ
notes: PksH of Bacillus subtilis 168, amplified from genomic DNA and cloned into pET28a (NdeI/XhoI); The His tag is thrombin cleavable (pET28a); also called WT PksH; source: E. coli BL21(DE3), purified (HisTrap, Superdex 200 SEC)
B2: PksI, bacillaene synthase decarboxylase (wild type) (enzyme, Bacillus subtilis 168)
chain: MTHSVVELIEIESAIIQVKMQDRTHKNAFSQELTDDLIQAFEYIRQNPKYKAVILTGYDNYFASGGTQEGLLRIQQGLTKFTDDNLYSLALDCEIPVIAAMQGHGIGGGFVMGLFADIVILSRESVYTANFMKYGFTPGMGATFIVPKKLGFSLAQEILLNAGSYRGADLEKRGVPFKVLPRAEVLDYAVELAQELAEKPRNSLVTLKDHLVAPLRDQLPRVIEQELMMHEKTFHHEEVKSRIKGLYGN
notes: PksI of Bacillus subtilis 168, amplified from genomic DNA and cloned into pOPINF; the crystal models hold residues 1-249; The His tag is 3C protease cleavable (pOPINF); also called WT PksI; source: E. coli BL21(DE3), purified (HisTrap, Superdex 200 SEC)

Molecular target: the molecule itself
Assay: SEC; analytical Superdex 200 10/60; 100 µl at 0.5 mg/ml; 50 mM Tris-HCl, 150 mM NaCl, 5% glycerol, pH 7.5 (legend: 20 mM Tris-HCl, 150 mM NaCl, pH 7.5); elution compared with standards

Protein | stoichiometry N
B1 | 3
B2 | 3
